The test system of assay [1] is human kidney tissue. As to the kind of experiment: Ex vivo culture of human kidney tissue, qRT-PCR gene expression. It is filed as cell-based. Here is the method:
Human kidney tissues from 5 adults (4 men, 1 […]) were cultured. All donors underwent partial nephrectomy due to suspected malignant kidney tumors and a pathologist removed tissues outside the malignant area. Kidney specimens were dissected in small pieces 1 mm^3 and cultured for either 3 or 24 hours in a hanging drop ex vivo model.
Gene expression profiling was done by qRT-PCR analyzing levels of calcium transporters SLC12A-1, SLC12A-2, TRPV5 as well as calcium-sensing receptor (CASR). The inventors also measured kidney expression of exon 2-4 and 11 of LHCGR using a primer-sequence previously validated by sequencing of the product from both serum and testis tissue. As calcium transporters are differentially expressed in the different parts of the nephron, all samples were standardized according to the expression of Uromodulin (UMOD), a protein located in the thick ascending limb of the loop of Henle and subsequently to MAP3K7 expressed in the distal convoluted tubules and in addition to being standardized to the housekeeping gene, RPS20. Ethical committee approval: H-17004362. All samples were analyzed with ANOVA with control/baseline as reference value and every p-value presented was adjusted for multiple comparisons with Dunnett's post hoc test.

The subject of assay [2] is bilateral ovariectomized female C57BL/6JRj mice. The assay is described as follows: Menopausal mouse model: temperature and tissue weights. Conditions: for Body weight compared with vehicle: after 10 days treatment. Type of assay: in vivo. Here is the method:
Bilateral ovariectomized female C57BL/6JRj mice, 8 weeks of age, were included in the study and administered with IgG2b (control) or 1 of 3 test articles (LH-β ab, LHCGR ab or GnRH antagonist) either at study day 1, or once a day for 9 days. The control/vehicle treatment was a non-specific antibody (IgG2b). The route of administration was through intraperitoneal (i.p.) injection. The study had four groups in total (Table 3); group 1 (female, n=6) was treated i.p. with IgG2b (control) on study day 1 and day 5, group 2 (female, n=3) was treated i.p. with LH-β ab at study day 1, group 3 (female, n=3) was treated i.p. with LHCGR ab at study day 1, group 4 (female, n=3) was treated i.p. with GnRH antagonist once a day (q.d.) for 9 days. Blood for preparation of serum was collected prior to dosing on study day 1 and at termination on study day 10. Core temperature and skin temperature were determined in female mice pre-dose on study day 1, at study day 5 and at termination on study day 10.
Seventeen (17) ovariectomized C57BL/6JRj female mice 8 weeks of age were supplied by Janvier Labs France. The ovaries from the female mice were surgically removed by the supplier. The mice were caged in European IVC cages type IIL. Temperature was 20° C. to 24° C. and the light cycle 12-hour dark and 12-hour light (lights on 06.00). The diet was Altromin 1324, produced by Altromin, Im Seelenkamp 20, 32791 Lage, Germany.
Temperature measurements were done using rectal thermometer (thermometer BIO-TK8851 combined with rectal probe BIO-BRET-3, both from BIOSEB Lab instruments) for core temperature and infrared (153-IRB Infrared Thermometer, BIOSEB Lab instruments) for skin temperature. The core temperature was recorded rectally, and skin temperature was recorded at the tail and the head between the ears at the same time of the day (morning). Immediately after termination, tissues (fat and thyroid mass) were dissected, weighed, placed in Eppendorf tubes and snap frozen by emerging the tube in liquid nitrogen or placed in histology jar and fixed in 4% neutral buffered formalin.

Assay [3] has the same test system. As to the kind of experiment: Calcium excretion and kidney weight in menopause mouse model. Type of assay: in vivo. Conditions: for kidney weight compared with vehicle (IgG2b): female mice without ovaries; for kidney weight compared with vehicle (IgG2b) / calcium excretion: day 10; for calcium excretion: female mouse model. Here is the method: (§1) Bilateral ovariectomized female C57BL/6JRj mice, 8 weeks of age, were included in the study and administered with IgG2b (control) or 1 of 3 test articles (LH-β ab, LHCGR ab or GnRH antagonist) either at study day 1, study day 1 and 5 or once a day for 9 days. The route of administration was through intraperitoneal (i.p.) injection. The study included be 6 groups in total (Table 6); group 1 (female, n=6) was treated i.p. with IgG2b (control) on study day 1 and day 5, group 2 (female, n=3) was treated i.p. with LH-β ab at study day 1, group 3 (female, n=1) was treated i.p. with LH-β AB on study day 1 and day 5, Group 4 (female, n=3) was treated i.p. with LHCGR ab at study day 1, group 5 (female, n=1) was treated i.p. with LHCGR ab on study day 1 and day 5, group 6 (female, n=3) was treated i.p. with GnRH antagonist once a day (q.d.) for 9 days. Blood for preparation of serum was collected prior to dosing on study day 1 and at termination on study day 10. Urine and kidneys were collected on day 10.
Seventeen (17) bilateral ovariectomized C57BL/6JRj female mice 8 weeks of age, were supplied by Janvier Labs France. The ovaries from the female mice were surgically removed by the supplier (see also Table 6). Fourteen (14) C57BL/6JRj male mice were also stratified into the different groups except that no male mice were treated with GnRH antagonist, and the male mice were therefore only stratified into groups 1-5 (see also Table 7).

Assay [4] relates to C57BL/6JRj male mice. The assay is described as follows: Calcium excretion and kidney weight in normal male mice. Type of assay: in vivo. As to the method:
as §1
Seventeen (17) bilateral ovariectomized C57BL/6JRj female mice 8 weeks of age, were supplied by Janvier Labs France. The ovaries from the female mice were surgically removed by the supplier (see also Table 6). […]

Non-standard residues stand in square brackets, D forms with d. Residues, ends and D or L forms follow the SMILES beside them. dPhe(4-Cl) = N[C@H](Cc1ccc(Cl)cc1)C(=O)O; d2Nal = N[C@H](Cc1ccc2ccccc2c1)C(=O)O; dCit = NC(=O)NCCC[C@@H](N)C(=O)O; d3Pal = N[C@H](Cc1cccnc1)C(=O)O

Consider `C[C@]12CC[C@H]3[C@@H](CCC4=CC(=O)CC[C@@]43C)[C@@H]1CC[C@@H]2O` [testosterone, reference compound], for which, in assay [1] (three hours ex vivo culture, 5 out of 5 below detection vs vehicle 3 out of 10), the “expression of LHCGR exon 11” value was “suppressed”.
As for `CC(=O)N[C@H](Cc1ccc2ccccc2c1)C(=O)N[C@H](Cc1ccc(Cl)cc1)C(=O)N[C@H](Cc1cccnc1)C(=O)N[C@@H](CO)C(=O)N[C@@H](Cc1ccc(O)cc1)C(=O)N[C@H](CCCNC(N)=O)C(=O)N[C@@H](CC(C)C)C(=O)N[C@@H](CCCNC(=N)N)C(=O)N1CCC[C@H]1C(=O)N[C@H](C)C(N)=O` [GnRH antagonist, Cetrorelix, reference compound] (Ac-[d2Nal][dPhe(4-Cl)][d3Pal]SY[dCit]LRP[dA]-NH2), in assay [2] (10 days), the visceral fat mass entry is given as “suppressed”. Moreover, in assay [2], the “Body weight compared with vehicle” value is given as “lower”. Also, in assay [3], the “kidney weight compared with vehicle (IgG2b)” value was “slightly lower” and the calcium excretion result is listed as “suppressed calcium excretion”.

B1: PTH: parathyroid hormone, added to kidney tissue culture media at 0.01 pg/mL (protein, UniProt P01270 32-115, looked up)
Parathyroid hormone: SVSEIQLMHNLGKHLNSMERVEWLRKKLQDVHNFVALGAPLAPRDAGSQRPRKKEDNVLVESHEKSLGEADKADVNVLTKAKSQ
modifications: Parathyroid hormone
notes: parathyroid hormone, added to kidney tissue culture media at 0.01 pg/mL
On to B1, for which the TRPV5 expression entry in assay [1] (after 24 hours) is recorded as “significantly increased”.

B2: LH-β ab: Monoclonal mouse antibody (IgG2B; Kappa) targeting mouse LH beta; variable light chain SEQ ID NO: 5, heavy chain SEQ ID NO: 9 (antibody)
heavy: MEWRIFLFILSGTAGVHSQVQLQQSGPELVKPGTSLKLSCKASGYTFTDYVLTWVKQRTGQGLEWIGEIYPGSGSTSYNEKFRGKATLTADKSSNTAYMQLSSLTSEDSAVYFCAHLYYADYDFSYWGQGTLVTVSAAKTTPPSVYPLAPGCGDTTGSSVTLGCLVKGYFPESVTVTWNSGSLSSSVHTFPALLQSGLYTMSSSVTVPSSTWPSQTVTCSVAHPASSTTVDKKLE
light: MKLPVRLLVLMFWIPVSSSDVLMTQIPLSLVVSLGDQASISCRSSQNIVQSNGNTYLEWYLQKPGQSPKLLIYKVSNRFSGVPDRFSGSGSGTDFTLKISRVEAEDLGVYYCFQGSHVPLTFGAGTKLELKRADAAPTVSIFPPSSEQLTSGGASVVCFLNNFYPKDINVKWKIDGSERQNGVLNSWTDQDSKDSTYSMSST
Take B2: in assay [2] (10 days), the subcutaneous fat mass result is recorded as “suppressed”, the thyroid mass result is recorded as “lowered” and the visceral fat mass result is recorded as “suppressed”. Besides, the “Body weight compared with vehicle” value in assay [2] is “lower”. Besides, the “increase of core temperature relative to baseline” value in assay [2] (day 5 and 10) worked out at 8%. For the same molecule, the “change in body weight versus vehicle” value in assay [2] (most pronounced in the first 5 days) is on record as “effective in suppressing the effect of menopause (gonadectomy) on weight induction”. Also, in assay [3], the “kidney weight compared with vehicle (IgG2b)” value is on record as “slightly lower” and the calcium excretion result was “suppressed calcium excretion”. The calcium excretion suppressed in assay [3] (high dosage, female mice) came out at 70%. Further, the calcium excretion result in assay [4] (all concentrations) is “reduced calcium excretion”. In assay [4] (day 10), the “kidney weight compared with vehicle (IgG2b)” value is recorded as “slightly lower”.

(Values after US20260183363A1, “INHIBITION OF LUTEINIZING HORMONE (LH) ACTION AS TREATMENT OF PERIMENOPAUSAL AND POSTMENOPAUSAL SYMPTOMS AND COMPLICATIONS” (RIGSHOSPITALET, priority 2022, published 2026).)
